T1: recombinant mouse NKG2D-Fc fusion protein (mouse; human, UniProt O54709 90-232)
T1 construct: extracellular domain; also called Mouse NKG2D-Fc-biotin; not shown: human IgG1 Fc domain
T1 sequence (looked up): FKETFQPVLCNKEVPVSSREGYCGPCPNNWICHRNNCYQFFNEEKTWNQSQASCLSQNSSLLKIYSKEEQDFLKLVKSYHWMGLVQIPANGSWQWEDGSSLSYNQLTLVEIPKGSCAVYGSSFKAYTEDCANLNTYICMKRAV

T2: recombinant cynomolgus NKG2D-Fc fusion protein (cynomolgus; human, UniProt P61252 73-216)
T2 construct: extracellular domain; not shown: human IgG1 Fc domain
T2 sequence (looked up): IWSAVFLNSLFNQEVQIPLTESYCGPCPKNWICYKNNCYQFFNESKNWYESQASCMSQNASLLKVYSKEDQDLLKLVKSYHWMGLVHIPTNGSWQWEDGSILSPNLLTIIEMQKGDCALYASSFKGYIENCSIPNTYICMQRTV

T3: recombinant human NKG2D-Fc fusion protein (human, UniProt P26718 73-216)
T3 construct: extracellular domain; also called NKG2D-Fc-biotin; not shown: human IgG1 Fc domain
T3 sequence (looked up): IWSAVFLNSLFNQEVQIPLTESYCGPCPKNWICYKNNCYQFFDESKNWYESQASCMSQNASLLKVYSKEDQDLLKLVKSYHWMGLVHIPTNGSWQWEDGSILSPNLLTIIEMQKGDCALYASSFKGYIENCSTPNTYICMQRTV

T4: human DLL3-His (human, UniProt Q9NYJ7 27-492)
T4 construct: also called hDLL3
T4 sequence: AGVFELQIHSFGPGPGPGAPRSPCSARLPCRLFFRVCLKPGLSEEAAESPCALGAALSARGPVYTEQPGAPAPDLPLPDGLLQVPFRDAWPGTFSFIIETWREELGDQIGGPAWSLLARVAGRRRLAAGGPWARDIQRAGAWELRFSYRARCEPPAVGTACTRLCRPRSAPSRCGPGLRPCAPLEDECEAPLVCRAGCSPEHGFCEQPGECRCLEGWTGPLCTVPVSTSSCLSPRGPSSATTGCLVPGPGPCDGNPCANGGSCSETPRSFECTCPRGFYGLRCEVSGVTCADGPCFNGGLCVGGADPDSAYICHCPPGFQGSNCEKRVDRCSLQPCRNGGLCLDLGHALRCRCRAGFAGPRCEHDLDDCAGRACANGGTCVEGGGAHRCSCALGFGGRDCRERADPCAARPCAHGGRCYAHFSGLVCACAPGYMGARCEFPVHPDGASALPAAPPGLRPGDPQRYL

T5: full-length form of the extracellular portion of DLL3 expressed on transduced RPMI-8226 cells (Homo sapiens (Human), UniProt Q9NYJ7 27-492)
T5 construct: also called DLL3-D1-6; DLL3+ RPMI-8226 cells
T5 sequence: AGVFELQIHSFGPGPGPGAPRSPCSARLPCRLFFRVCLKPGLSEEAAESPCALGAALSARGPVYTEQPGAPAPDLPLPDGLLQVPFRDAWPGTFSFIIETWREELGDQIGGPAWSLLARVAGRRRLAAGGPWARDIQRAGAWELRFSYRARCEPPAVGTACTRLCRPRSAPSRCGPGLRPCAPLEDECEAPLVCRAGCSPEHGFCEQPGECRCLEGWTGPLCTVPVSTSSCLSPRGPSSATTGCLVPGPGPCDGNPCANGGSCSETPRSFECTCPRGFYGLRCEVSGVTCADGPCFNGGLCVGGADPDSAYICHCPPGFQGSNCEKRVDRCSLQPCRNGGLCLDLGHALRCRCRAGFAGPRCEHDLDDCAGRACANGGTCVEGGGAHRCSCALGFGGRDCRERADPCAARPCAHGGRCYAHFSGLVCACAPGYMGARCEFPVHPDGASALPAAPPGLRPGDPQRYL


What was measured:
[1] = molecular target: T1, recombinant mouse NKG2D-Fc fusion …; experiment: competition ELISA: plate-bound mouse Rae-1 delta-Fc, mouse NKG2D-Fc-biotin in solution; blocked ligand Rae-1 delta
Description: Recombinant mouse Rae-1 delta-Fc (R&D Systems, Minneapolis, Minn.) was adsorbed to wells of a microplate, and the wells were blocked with bovine serum albumin to reduce non-specific binding. Mouse NKG2D-Fc-biotin was added to the wells followed by NKG2D-binding domains. After incubation and washing, NKG2D-Fc-biotin that remained bound to Rae-1delta-Fc coated wells was detected using streptavidin-HRP and TMB substrate. Absorbance was measured at 450 nm and corrected at […]. After subtracting background, specific binding of NKG2D-binding domains to the NKG2D-Fc proteins was calculated from the percentage of NKG2D-Fc-biotin that was blocked from binding to the Rae-1delta-Fc coated wells.

[2] = molecular target: T2, recombinant cynomolgus NKG2D-Fc fusion …; experiment: ELISA, plate-bound recombinant cynomolgus NKG2D-Fc, anti-human kappa-HRP/TMB
Excerpt: (§1) The nucleic acid sequences of human, mouse or cynomolgus NKG2D ectodomains were fused with nucleic acid sequences encoding human IgG1 Fc domains and introduced into mammalian cells to be expressed. After purification, NKG2D-Fc fusion proteins were adsorbed to wells of microplates. After blocking the wells with bovine serum albumin to prevent non-specific binding, NKG2D-binding domains were titrated and added to the wells pre-adsorbed with NKG2D-Fc fusion proteins. Primary antibody binding was detected using a secondary antibody which was conjugated to horseradish peroxidase and specifically recognizes a human kappa light chain to avoid Fc cross-reactivity. 3,3′,5,5′-Tetramethylbenzidine (TMB), a substrate for horseradish peroxidase, was added to the wells to visualize the binding signal, whose absorbance was measured at 450 nm and corrected at […]. An NKG2D-binding domain clone, an isotype control or a positive control (comprising heavy chain and light chain variable domains selected from SEQ ID NOs:101-104, or anti-mouse NKG2D clones MI-6 and CX-5, eBioscience, San Diego, Calif.) was added to each well.

[3] = molecular target: T3, recombinant human NKG2D-Fc fusion …; experiment: ELISA, plate-bound recombinant human NKG2D-Fc, anti-human kappa-HRP/TMB
Excerpt: as §1

[4] = molecular target: T3, recombinant human NKG2D-Fc fusion …; experiment: competition ELISA: plate-bound human NKG2D-Fc, saturating ULBP-6-His-biotin as blocked ligand, streptavidin-HRP
Description: Recombinant human NKG2D-Fc proteins were adsorbed to wells of a microplate, and the wells were blocked with bovine serum albumin to reduce non-specific binding. A saturating concentration of ULBP-6-His-biotin was added to the wells, followed by addition of the NKG2D-binding domain clones. After a 2-hour incubation, wells were washed and ULBP-6-His-biotin that remained bound to the NKG2D-Fc coated wells was detected by streptavidin-conjugated to horseradish peroxidase and TMB substrate. Absorbance was measured at 450 nm and corrected at […]. After subtracting background, specific binding of NKG2D-binding domains to the NKG2D-Fc proteins was calculated from the percentage of ULBP-6-His-biotin that was blocked from binding to the NKG2D-Fc proteins in wells.

[5] = molecular target: T1, recombinant mouse NKG2D-Fc fusion …; experiment: ELISA, plate-bound recombinant mouse NKG2D-Fc, anti-human kappa-HRP/TMB
Excerpt: as §1

human DLL3-His = molecular target: T4, human DLL3-His; experiment: SPR (Biacore 8K), 37 C, antibody captured on anti-human Fc, DLL3-His 0.411-300 nM injected, 1:1 fit
Excerpt: The kinetics of binding of different humanized variants and parental murine 5E7 antibody to human DLL3-His was studied by Surface Plasmon Resonance using a Biacore 8K instrument. Briefly, anti-hFc and anti-mFc IgG proteins were covalently immobilized onto different channels of CMS chip to allow simultaneous analysis of human and murine antibodies. m5E7 was captured on the anti-mouse Fc channel and humanized variants were captured on the anti-human Fc channel at a desired capture level of […] in HBS-EP+ buffer supplemented with 0.1% BSA. Three buffer blanks and human DLL3-His (analyte) at concentrations 0.411-300 nM (in three fold dilutions) were injected over the surface with captured murine or humanized 5E7 for 300 second association time and let dissociate for 600 second at a flow rate of 30 μL/min. The surfaces were subjected to regeneration with three 20-second pulses of 10 mM glycine pH 1.70 at a flow rate of 100 μL/min between every concentration of analyte. The experiment was conducted at 37° C. Data were double referenced and a 1:1 fit model was applied to the sensorgrams in the Biacore Insight Evaluation software.
The kinetic parameters of human DLL3-His binding to murine and humanized variants of 5E7 antibody variants were calculated and shown in Table 39.

[6] = molecular target: T5, full-length form of the extracellular …; experiment: flow cytometry, RPMI-8226 cells transduced to express full-length extracellular DLL3, fluorophore-conjugated anti-human IgG
Description: Anti-DLL3 mAbs were diluted and incubated with DLL3⁺ RPMI-8226 cells. The cells were analyzed by flow cytometry and binding of a mAb was detected using a fluorophore conjugated anti-human IgG secondary antibody.

IC50 (read off the curve) [1]	EC50 (read off the curve) [2]	EC50 (read off the curve) [3]	IC50 (read off the curve) [4]	EC50 (read off the curve) [5]	Kd (human DLL3-His)	koff (human DLL3-His)	kon (human DLL3-His)	EC50 (read off the curve) [6]	Binder
~20 nM	~0.3 nM	~0.4 nM	~6 nM	~0.2 nM					ADI-27740 (antibody, V domains shown, also called A40) VH: QVQLQQWGAGLLKPSETLSLTCAVYGGSFSGYYWSWIRQPPGKGLEWIGEIDHSGSTNYNPSLKSRVTISVDTSKNQFSLKLSSVTAADTAVYYCARARGPWSFDPWGQGTLVTVSS VL: DIQMTQSPSTLSASVGDRVTITCRASQSIGSWLAWYQQKPGKAPKLLIYKASSLESGVPSRFSGSGSGTEFTLTISSLQPDDFATYYCQQYHSFYTFGGGTKVEIK
~20 nM	~0.3 nM	~0.3 nM	~2 nM	~0.2 nM					ADI-27743 (antibody, V domains shown) VH: QVQLQQWGAGLLKPSETLSLTCAVYGGSFSGYYWSWIRQPPGKGLEWIGEIDHSGSTNYNPSLKSRVTISVDTSKNQFSLKLSSVTAADTAVYYCARARGPWSFDPWGQGTLVTVSS VL: not shown
					8.72 nM	0.00697 s⁻¹	799000 M⁻¹ s⁻¹	~7 nM	humanized anti-DLL3 antibody h5E7 (antibody, V domains shown, Expressed as IgG1 mAb: human IgG1 CH1-CH2-CH3 and human constant kappa) VH: QVQLVQSGAEVKKPGASVKVSCKASGFNIKDDYIHWVRQAPGQGLEWMGWIDSENGDTEYASKFQGRVTITADTSANTAYMELSSLRSEDTAVYYCATSSYYSYDLFVYWGQGTLVTVSS VL: DVQMTQSPSSLSASVGDRVTITCKSSQSLLHSNGKTYLNWLQQKPGQAPKLLLYLVSKLESGVPSRFSGSGSGTDYTLTISSLQPEDFATYYCLQTTHLYTFGQGTKLEIK

Source: patent US20210221894A1 (DRAGONFLY THERAPEUTICS, published 2021)
